According to the supplement of paper PMC10201428:
± gives the standard deviation of the averaged measurements.

Tests used:
[1] = system: VchCAST RNA-guided transposition machinery (E. coli BL21(DE3) host, lacZ target); assay: relative integration efficiency (T-RL orientation) vs wild-type transposon end (log2 (normalized fold change)); transposon end mutated: right end (5 bp flank + 75 bp right end); higher = more efficient transposition
In short: (§1)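 Relative integration efficiency is a fold change of output over input barcode abundance, normalised to reference barcodes and log-transformed. Input plasmids and genomic integration junctions were PCR-amplified and Illumina-sequenced from E. coli BL21(DE3) co-transformed with a T7-driven effector plasmid and pUC57 donor pools of 1549 left-end or 1849 right-end transposon variants. Plating was done with 0.1 mM IPTG at 37°C for 18 h, with two biological output replicates and four reference barcodes.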

[2] = system: VchCAST RNA-guided transposition machinery (E. coli BL21(DE3) host, lacZ target); assay: relative integration efficiency (T-LR orientation) vs wild-type transposon end (log2 (normalized fold change)); transposon end mutated: right end (5 bp flank + 75 bp right end); higher = more efficient transposition
In short: as §1

Sequence	relative integration efficiency (log2) [1]	relative integration efficiency (log2) [2]
ACATTTGTTGATACAACCATAAAATGATAATTACACCCATAAATTGATAATTATCACACCCATAAATTGATATTGCCTGAGATCATAGTCAGACCAACATTGCTACGACCCGTATTCGCACCGACAC	0.0616 ± 0.0024	0.172 ± 0.11
ACATTTGTTGATACAACCATAAAATGATAATTACACCCATAAATTGATAATTATCACACCCATAAATTGATATTGCGACTGATCATAGTCAGACCAACATTGCTACGACCCGTATTCGCACCGACAC	-0.0819 ± 0.0067	-0.0636 ± 0.17
ACATTTGTTGATACAACCATAAAATGATAATTACACCCATAAATTGATAATTATCACACCCATAAATTGATATTGCGAGAGATCATAGTCAGACCAACATTGCTACGACCCGTATTCGCACCGACAC	-0.286 ± 0.11	-0.165 ± 0.12
ACATTTGTTGATACAACCATAAAATGATAATTACACCCATAAATTGATAATTATCACACCCATAAATTGATATTGCTCTGATCATAGTCAGACCAACATTGCTACGACCCGTATTCGCACCGACACT	0.126 ± 0.019	-0.11 ± 0.21
ACATTTGTTGATACAACCATAAAATGATAATTACACCCATAAATTGATAATTATCACACCCATAAATTGATATTGCTTATGATCATAGTCAGACCAACATTGCTACGACCCGTATTCGCACCGACAC	0.0482 ± 0.094	-0.462 ± 0.31
ACATTTGTTGATACAACCATAAAATGATAATTACACCCATAAATTGATAATTATCACACCCATAAATTGATATTGGGAGTGATCATAGTCAGACCAACATTGCTACGACCCGTATTCGCACCGACAC	-0.111 ± 0.04	0.108 ± 0.15
ACATTTGTTGATACAACCATAAAATGATAATTACACCCATAAATTGATAATTATCACACCCATAAATTGATATTTAAGAGGATCATAGTCAGACCAACATTGCTACGACCCGTATTCGCACCGACAC	0.179 ± 0.034	0.08 ± 0.011
ACATTTGTTGATACAACCATAAAATGATAATTACACCCATAAATTGATAATTATCACACCCATAAATTGATATTTAAGCTGATCATAGTCAGACCAACATTGCTACGACCCGTATTCGCACCGACAC	-0.000531 ± 0.0027	-0.0384 ± 0.075
ACATTTGTTGATACAACCATAAAATGATAATTACACCCATAAATTGATAATTATCACACCCATAAATTGATCGGTAAGAGGATCATAGTCAGACCAACATTGCTACGACCCGTATTCGCACCGACAC	-0.421 ± 0.075	1.33 ± 0.2
ACATTTGTTGATACAACCATAAAATGATAATTACACCCATAAATTGATAATTATCACACCCATAAATTGATCTCTGATCATAGTCAGACCAACATTGCTACGACCCGTATTCGCACCGACACTGACT	-0.209 ± 0.021	0.731 ± 0.26
ACATTTGTTGATACAACCATAAAATGATAATTACACCCATAAATTGATAATTATCACACCCATAAATTGCGCGGTAAGAGGATCATAGTCAGACCAACATTGCTACGACCCGTATTCGCACCGACAC	-0.4 ± 0.022	2.18 ± 0.12
ACATTTGTTGATACAACCATAAAATGATAATTACACCCATAAATTGATAATTATCACACCCATAAATTTCGCGGTAAGAGGATCATAGTCAGACCAACATTGCTACGACCCGTATTCGCACCGACAC	-0.719 ± 0.14	2.22 ± 0.05
ACATTTGTTGATACAACCATAAAATGATAATTACACCCATAAATTGATAATTATCACACCCATAACGGTCGCGGTAAGAGGATCATAGTCAGACCAACATTGCTACGACCCGTATTCGCACCGACAC	-0.752 ± 0.12	2.14 ± 0.13
ACATTTGTTGATACAACCATAAAATGATAATTACACCCATAAATTGATAATTATCACACCCATACCGGTCGCGGTAAGAGGATCATAGTCAGACCAACATTGCTACGACCCGTATTCGCACCGACAC	-0.58 ± 0.031	2.44 ± 0.13
ACATTTGTTGATACAACCATAAAATGATAATTACACCCATAAATTGATAATTATCACACCCATCCCGGTCGCGGTAAGAGGATCATAGTCAGACCAACATTGCTACGACCCGTATTCGCACCGACAC	-0.648 ± 0.11	2.36 ± 0.21
